Data taken from patent US20100158926A1.
Numbering of substitutions follows the chain as printed. “And” between values parts separate entries of the source, which are not always exact repeats. Identical values can stand only once.

B1: monoclonal antibody 1.100.1 (antibody, V domains shown)
VH: QLQLQESGPGLVKPSETLSLTCTVSGGFISSSSYYWGWIRQPPGKGLEWIGTIYYSGTTYYNSSLKSRVTISVDTSQNQFSLKLSSVTAADTAVYYCARHHWVFDYWGQGTLVTVSS
VL: EVVLTQSPDFQSVTPKEKITITCRASQIIGTSLHWYQKKPDQSPKLLIKYASQSFSGVPSRFSGSGSGTEFTLTINSLEAEDTATYYCHQSTNLPWTFGQGTKVEIK
B2: monoclonal antibody 1.14.1 (antibody, V domains shown)
VH: B1 VH with G27D, F28S, S32F, S33I, T58S, S63P, Q77K, S85R, L112Q
VL: DIVLTQFPDFQSVTPKEKVTITCRASQVIGSSLHWYQQKPDQSPKLLIKYASQSFSGVPSRFSGSGSGTDFTLTINSLEVEDAATYYCHQSTILPWTFGQGTKVEVK
B3: monoclonal antibody 1.39 (antibody, V domains shown)
VH: B1 VH with F28S, S33T, T58S, S63P, Q77K, S85N
VL: B2 VL with D1E, F7S, Q11L, V28I, I75L, V80A, V106I
B4: monoclonal antibody 1.96 (antibody, V domains shown)
VH: EVQLVESGGGLVQPGGSLRLSCAASGFTFSSYWMSWVRQAPGKGLEWVANIKQDGSEKYYVDSVKGRFTISRDNAKNSLYLQMNSLRAEDTAVYYCARWGVFGSGSYYIPFDYWGQGTLVTVSS
VL: DIQMTQSPSSLSASVGDRVTITCRASHSITRYINWYQQKPGKAPNLLIYAASSLQSGVPSRFSGSGSGTDFTLTISSPQPEDFATYYCQQSYSSPPITFGQGTRLEIK
B5: monoclonal antibody 1.43 (antibody, V domains shown)
VH: QVQLVESGGGLVKPGGSLRLSCAASGFTFSDYYMNWIRQAPGKGLEWVSYISSSGSIIYYADSVKGRFTISRDNAKNSLYLQMNSLRAEDTAVYYCAREGRIAARGMDVWGQGTTVTVSS
VL: DIQMTQSPSSLSASVGDRVSITCRPSQSFSRYINWYQQKPGKAPKLLIHAASSLVGGVPSRFSGSGSGTDFTLTISSLQPEDFATYYCQQTYSNPPITFGQGTRLEMK

How the values were obtained:
[1] = target: human ErbB2 ECD-myc/His fusion protein (human); assay: SPR, medium resolution Biacore 2000; mAb captured on goat anti-human IgG, ErbB2(ECD)-cMyc/His injected; 1:1 fit
[2] = target: human ErbB2, full length, on cells (B300.19/hErbB2 clone #44; MCF7; BT474; SKBR3) (human)
[3] = target: human ErbB2 ECD-myc/His fusion protein (human); assay: limited antigen ELISA, 31 ng/ml antigen coated, supernatant 1:25, OD 450 nm
[4] = target: human ErbB2, full length, on cells (B300.19/hErbB2 clone #44; MCF7; BT474; SKBR3) (human); remark: listed apart in the source
[5] = target: human ErbB2, full length, on cells (B300.19/hErbB2 clone #44; MCF7; BT474; SKBR3) (human); remark: listed apart in the source
[6] = target: human ErbB2, full length, on cells (B300.19/hErbB2 clone #44; MCF7; BT474; SKBR3) (human); remark: listed apart in the source
[7] = target: human ErbB2, full length, on cells (B300.19/hErbB2 clone #44; MCF7; BT474; SKBR3) (human); remark: listed apart in the source
[8] = target: human ErbB2, full length, on cells (B300.19/hErbB2 clone #44; MCF7; BT474; SKBR3) (human); remark: listed apart in the source
[9] = target: human ErbB2 ECD-myc/His fusion protein (human); assay: SPR, high resolution Biacore T100; mAb captured on goat anti-human IgG, hHer-2(ECD)cMyc injected; 1:1 fit

Binder | Kd [1] [nM] | koff [1] [s⁻¹] | kon [1] [M⁻¹ s⁻¹] | % Inhibition @10 µg/ml, Heregulin-induced MCF7 cell proliferation [2] [%] | EC50 (ng/ml), inhibition of Heregulin-induced MCF7 cell proliferation [2] [ng/mL] | LA at 31 ng/ml [3] | % inhibition @36 µg/ml, SKBR3 cell proliferation [4] [%] | EC50 (ng/ml), inhibition of SKBR3 cell proliferation [4] [ng/mL] | % Inhibition @10 µg/ml (n1), ErbB2 phosphorylation in BT474 cells at 48 hours [5] [%] | EC50 (ng/ml) n1, inhibition of Heregulin-induced ErbB2 phosphorylation in MCF7 cells [6] [ng/mL] | EC50 (ng/ml) n2, inhibition of Heregulin-induced ErbB2 phosphorylation in MCF7 cells [6] [ng/mL] | N1 % Inhibition @40 µg/ml, BT474 cell proliferation [8] [%] | N1 EC50 (ng/ml), inhibition of BT474 cell proliferation [8] [ng/mL] | N2 EC50 (ng/ml), inhibition of BT474 cell proliferation [8] [ng/mL] | Kd [9] [nM] | koff [9] [s⁻¹] | kon [9] [M⁻¹ s⁻¹] | other results
B1 | 2.9 | 0.000301 | 104000 | 95 | 2040 | 3.54 OD | 54 | 61.3 | 37 | 39.9 | 33.7 | 35 | 169 | 91.1 |  |  |  | 24 hr pTyr inhibition % (line 1*100) [7]: 95%
B2 | 2.5 | 0.000256 | 102000 | 96 | 640 | 3.99 OD | 52 | 35.7 | 37 | 33.7 | 22.9 | 38 | 136 | 63 |  |  |  | 24 hr pTyr inhibition % (line 1*14) [7]: 100%
B3 | 2 | 0.000236 | 115000 | 89 | 479 | 2.57 OD | 41 | 68.9 | 37 | 46.9 | 26.3 | 29 | 156 | 42.3 | 13.4 | 0.000214 | 16000 | 24 hr pTyr inhibition % (line 1*39) [7]: 99%
B4 | 2.6 | 0.000273 | 103000 | 98 | 2830 |  | 43 | 41.7 | 37 | 28.8 | 34 | 35 | 131 | 66.3 | 11.6 | 0.000194 | 16800 | 24 hr pTyr inhibition % (line 1*96) [7]: 99%; 24 hr pTyr inhibition % (line 1*99) [7]: 99%; 24 hr pTyr inhibition % (line 1*104) [7]: 73%; 24 hr pTyr inhibition % (line 1*107) [7]: 82%; 24 hr pTyr inhibition % (line 1*128) [7]: 98%
B5 |  |  |  | 53 | 10000 | 3.2 OD and 3.57 OD |  |  |  | > 10000 | > 10000 |  |  |  |  |  |  | 24 hr pTyr inhibition % (line 1*41) [7]: 86%; 24 hr pTyr inhibition % (line 1*43) [7]: 82%
